Reference: patent US20110143953A1 (ARIZONA BOARD OF REGENTS A BODY CORPORATE OF THE STATE OF …, published 2011)

T1: Gal80 (UniProt P04387 1-435, limits assumed, labelled with Cy3 or Cy5 in the peptide array screen)
T1 sequence (looked up): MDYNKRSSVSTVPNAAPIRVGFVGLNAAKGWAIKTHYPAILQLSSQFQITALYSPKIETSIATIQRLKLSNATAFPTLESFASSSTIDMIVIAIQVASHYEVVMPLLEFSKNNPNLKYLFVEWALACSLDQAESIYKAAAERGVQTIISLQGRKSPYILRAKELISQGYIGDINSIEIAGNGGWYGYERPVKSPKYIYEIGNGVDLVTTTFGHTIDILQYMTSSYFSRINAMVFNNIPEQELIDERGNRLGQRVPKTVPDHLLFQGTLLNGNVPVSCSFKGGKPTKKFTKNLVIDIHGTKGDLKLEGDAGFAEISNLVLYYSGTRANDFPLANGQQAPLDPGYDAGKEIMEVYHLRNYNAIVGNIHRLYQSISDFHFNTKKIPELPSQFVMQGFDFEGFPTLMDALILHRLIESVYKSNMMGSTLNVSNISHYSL

B1: BP2 on dsDNA (peptide)
peptide: EGEWTEGKLSLRGSC
modifications: chain 1 pos 15: Cys thiol joined via SMCC maleimide to an amine-modified cytosine of the double-stranded DNA linker. The DNA cannot be carried by the letters.
notes: also called BP2 complexed by itself to the double-stranded DNA linker
B2: linker-optimized BP1/BP2 DNA-linked synbody (BP1 on the template strand, BP2 at position 13 from the 3' end of the variable strand) (designed binder)
peptide 1: GTEKGTSGWLKTGSC
peptide 2: EGEWTEGKLSLRGSC
modifications: not fully specified; C-terminal cysteine conjugated through SMCC to the amine-modified cytosine at position 13 from the 3' end of the DNA variable strand (SEQ ID NO: 15); C-terminal cysteine conjugated through SMCC to the amine-modified 5' terminal cytosine of the DNA template strand (SEQ ID NO: 14)
notes: The two peptides are held about 5 nm apart by a double-stranded DNA linker; also called Gal80 synbody; gal80 synbody
B3: BP1 on dsDNA (peptide)
peptide: GTEKGTSGWLKTGSC
modifications: chain 1 pos 15: Cys thiol joined via SMCC maleimide to an amine-modified cytosine of the double-stranded DNA linker. The DNA cannot be carried by the letters.
notes: also called BP1 complexed by itself to the double-stranded DNA linker
B4: TRF19 (peptide)
peptide: KEDNPGYSSEQDYNKLDGSC
notes: 20-mer random peptide; on the array it is attached by its C-terminal cysteine to the surface

Columns and labels:
Gal80 [1] = target: T1, Gal80; assay: SPR, gal80 immobilised on the chip, Kd from on and off rates
transferrin = target: T2, transferrin (UniProt P02787 20-698, randomly labelled at free amines with Alexa 555 in the peptide array screen; amine-coupled to the chip in SPR); assay: SPR (Biacore T100), transferrin immobilized, steady-state response
T2 construct: also called TRF
Source text: Flow rates and contact times are adjusted as necessary to provide the surface concentration of target desired for the intended application, and may vary by target. In general, for evaluating whether binding occurs, it is preferable to immobilize a relatively large quantity of target, and higher flow rates and/or longer contact times may be used. For determining kinetics, it is preferable to limit the amount of target immobilized so as to minimize rebinding and avidity effects, and lower flow rates and/or contact times may be used.
Candidate affinity elements for the transferrin synbody TRF19, TRF21, TRF23, TRF24, TRF25, and TRF26 were individually evaluated for solution phase KD with respect to transferrin by SPR analysis. […] For each experiment, response data were processed using a reference surface to correct for bulk refractive index changes and any non-specific binding. Data were also double referenced using responses from blank running buffer injections.

Gal80 [2] = target: T1, Gal80; assay: gel shift assay; gel shift assay
Gal80 [3] = target: T1, Gal80; assay: SPR, synbody in solution (1 µM to 7.81 nM) on surface-bound Gal80; SPR, synbody in solution, surface-bound Gal80

T2 sequence (P02787 20-698 limits assumed): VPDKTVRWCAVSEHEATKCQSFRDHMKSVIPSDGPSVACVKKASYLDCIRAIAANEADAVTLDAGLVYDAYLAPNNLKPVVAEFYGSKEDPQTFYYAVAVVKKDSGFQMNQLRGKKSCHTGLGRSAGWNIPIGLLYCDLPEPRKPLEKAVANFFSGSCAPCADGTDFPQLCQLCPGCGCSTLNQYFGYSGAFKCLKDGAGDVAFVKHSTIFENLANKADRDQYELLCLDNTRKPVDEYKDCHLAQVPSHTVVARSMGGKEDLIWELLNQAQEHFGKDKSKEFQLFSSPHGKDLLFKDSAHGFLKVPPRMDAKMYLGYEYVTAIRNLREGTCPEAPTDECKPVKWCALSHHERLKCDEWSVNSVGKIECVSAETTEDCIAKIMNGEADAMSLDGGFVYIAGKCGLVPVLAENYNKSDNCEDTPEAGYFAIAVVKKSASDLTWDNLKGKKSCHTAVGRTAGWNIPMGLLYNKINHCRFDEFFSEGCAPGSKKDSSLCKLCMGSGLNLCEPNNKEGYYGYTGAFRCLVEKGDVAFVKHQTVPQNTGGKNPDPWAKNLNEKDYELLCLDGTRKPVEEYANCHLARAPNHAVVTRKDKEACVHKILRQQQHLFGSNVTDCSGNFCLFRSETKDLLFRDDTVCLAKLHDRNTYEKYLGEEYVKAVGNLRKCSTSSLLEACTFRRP

| Binder | Kd (transferrin) [µM] | also measured |
| --- | --- | --- |
| B1 | – | Kd (Gal80 [1]): 0.982 µM |
| APYAPQQIHYWSTLGFKGSC (20-mer random peptide) [TRF25] | ~60 | – |
| B2 | – | Kd (Gal80 [2]): ~0.1 µM; Kd (Gal80 [3]): 0.091 µM |
| SVKPWRPLLTGNRWLNSGSC [TRF24] | ~50 | – |
| QYHHFMNLKRQGRAQAYGSC (20-mer random peptide) [TRF21] | ~60 | – |
| B3 | – | Kd (Gal80 [1]): 0.482 µM |
| FRGWAHIFFGPHVIYRGGSC (20-mer random peptide) [TRF23] | ~50 | – |
| B4 | ~150 | – |
| AHKVVPQRQIRHAYNRYGSC (20-mer random peptide) [TRF26] | ~100 | – |
